Data set [1] has as its target adaptor protein LnK, wild type (UniProt Q9UQQ2).
Data set [2] concerns the target LnK PH domain (from V5-LnK mutant constructs) (UniProt Q9UQQ2).

As for JAK2 V617F, the “tyrosine phosphorylation of LnK (anti-phosphotyrosine immunoprecipitation, LnK Western blot)” value in data set [1] was “the phosphorylation levels of LnK itself are higher in 293T cells expressing JAK2 V617F compared with cells expressing JAK2 WT”. In addition, in data set [2], the “JAK2 V671F autophosphorylation levels” value was “The LnK PH domain associates with and inhibits JAK2 V671F”.

Source of the values: US20100130423.
